The record followed here is the nanobody polyreactivity screen of Harvey et al. (2022).

This data set is described as follows: yeast display, Sf9 membrane polyspecificity reagent, FACS + sequencing; frameworks hold sequencing errors. The method, boiled down: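 A synthetic nanobody library was expressed on Saccharomyces cerevisiae BJ5465 by galactose induction for 36–48 hours. The library was stained for 1 hour at 4 °C with 10% biotinylated, detergent-solubilized Sf9 membrane reagent and enriched with streptavidin microbeads before FACS. Low and high (top ~1%) gates were set on anti-HA fluorescence for expression and streptavidin fluorescence for reagent binding, and each polyreactivity label reflects the gate of origin.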
“QVQVVESGGGLVQAGGSLRLSCAASGSIIYYYAMGWYRQAPGKERELVARISWNGGSTYYADSVKGRFTISRDNAKNTVYLQMNSLKPEDNAVYYCAARPWHHYYWGQGTQVTVSS”: the “polyreactivity (PSR sort gate)” value is recorded as “high polyreactivity”.
“QVQVVESGGGLVQAGGSLRLSCAASGSTFSIYAMGCYRQAPGKERELVAAISSSGGSTYYADSVKGRFTISRDNGKNTVYLQMNSLKPEDTAVYYCNKRKYHVRYDYWGQGTQVTVSS”: the “polyreactivity (PSR sort gate)” value is “low polyreactivity”.
For the sequence “QVQVVESGGGLVQAGGSLRLSCAASGSTFVLNAMGWYRQAPGKERELVAAITYGGSTYYADSVKGRFTISRDNAKNTVYLQMNSLKPEDTAVYYCAVTYNGDSSWPGDYWGQGTQVTVSS”, the “polyreactivity (PSR sort gate)” value is listed as “low polyreactivity”.
For the sequence “QVQVVESGGGLVQAGGSLRLSCAASGSTFWWYAMGWYRQAPGKERELVAAITSGGSTNYADSVKGRFTISRDNAKNTVYLQMNSLKPEVTAFYYCAKVPRPLVYYIRLGYWGQGTQVTVSS”, the “polyreactivity (PSR sort gate)” value is listed as “high polyreactivity”.
Regarding “QVQVVESGGGLVQAGGSLRLSCAASGWYNAMGWYRQAPGKERELVAAISWDGDSTYYADSVKGRFTISRENAKNTVYLQMNSLKPEDTAVYYCAATQSTGRGRYYYWGKGTQVTVSS”, the “polyreactivity (PSR sort gate)” value is given as “high polyreactivity”.
On to “QVQVVESGGGLVQAGGSLRLSCASSGRTFGIYAMGWYRPAPGKESEWVASISWSGGRTYYADSVKGRFTISRDNAKNTVYLVMISLKPEDTAVYFCAARWYYVTPLRRYGYWGQGTQVTVSS”, for which the “polyreactivity (PSR sort gate)” value is given as “high polyreactivity”.
In the case of “QVQVVESGGGLVQAGGSLRVICAASGSTFYRNAMGWYRQAPGKEWELVAAITRSASSTYYADSVKGRFTISRDNAKNNVDLQLNSLKPEDTAVYYCAAKRRVSHLDYWGQGTQVNVSS”, the “polyreactivity (PSR sort gate)” value was “high polyreactivity”.
The result for “QVQVVESGGGLVQPGCSLRLSCAASGNIFVYNDMGWYRQAPGKERELVAAIDSGGSTYYADSVKGRFTISRDNAKNNVYLKMNSLKQEDTAVYYCAADYYCTYRTIYYYWGQGTQVTVSS” reads “low polyreactivity”; that for “QVQVVESGVGLVQSGGSLRLSYAASGSIFIPYPMGWYRQAPGKERELVAAISSSGSTYYADSVKGRFTISRDNAKNTFYLQMNSLKPEDTAVYYCAAERHYSYSSYDDWGQGTQVTVSS”, “low polyreactivity”; that for “QVRLVESGGGLVQAGGSLRLRCAASGSTFYTYAMGRYRQAPGKERELVAAITFIDGSTYYADSVKGRFTISRDNANNTVYLQMNSLKPEDTAVYYCAAASRGWGYPLYYSTDEYWGHGTQVTVSS”, “low polyreactivity”.
As for “QVRLVESGGGLVQAGGSLRLSCAASGRIFASYAMGWNRQAPGKETELVAAISKSGGRTYYADSVKGGFTISRDNAKNTVYLQMNSLKPEDTAVYYCAAYFWTRSGTPNYDYWGQGTQVTVSS”, the “polyreactivity (PSR sort gate)” value was “high polyreactivity”.
Then “QVRLVESGGGLVQAGGSLRLSCAASGSIFAPYAMGWYRQAPGKERELVATIRTTGDSTYYADSVKGRFTISRDNAKNTVYLQMNSLKPEDTAVYYCAKSEPLVVGVSPWYQVDYCGQGTQVTVSS”, with “low polyreactivity”; and “QVRLVESGGGLVQAGGSLRLSCAASGSILDINAMGWYRQAPGKERELVASISWTGGHTYYADSVKGRFTISRDNAKNTVYLQMNSLKPEDTAVYDCAATHQETVYYFLSIFDYWGQGTQVTVSS”, with “low polyreactivity”.
Then “QVRLVESGGGLVQAGGSLRLSCAASGSILYRYTMGWYRQAPGKETELVAAITWSDGSTYYSDSVKGRFTISRDNAKNTVYLQKNSLKPEDTAVYDCAADLWLDVDHEWSGGDYWGQGTQVTVSS”, with “low polyreactivity”.
As for “QVRLVETGGGLVQAGGSLRLSCAASGSIFLIYDMGWYRQAPGKEMELVAAISNSVGSTYADSVKGRFTMSRDNAKNTVYLQMNSLKPEDTAVYYCNADYGPIDGRGGYWGQGTQVTVSS”, the “polyreactivity (PSR sort gate)” value is listed as “low polyreactivity”.
With “QVRRVESGGGLVQAGGSLRLSCAASGSTFPWYAMGWYRQAPGTERELVASITSGTTTNYADSVKGRFTISRDNAKNTVYLEMNSLKPEDTAVYYCAASWVYPYDYWGQGTQVTVSS”, the “polyreactivity (PSR sort gate)” value is listed as “low polyreactivity”.
Then “QYQLVESVGGLDQAGGTLRLSCAASARIFSYYAMGWYRQAPGKERELVATISYSGGSTYYADSVKGRFTISRDKAKNTVYLQMNSLKPEDSAVYYCAATRYPYFSFVRFPSRRFNYWGQGTQVTVSS”, with “high polyreactivity”.
With “RLVQAGGSLRLSCAASGRIFGTYAMGWYRQAPGKERELVAAITQSGGRTYYADSVKGRFTISRDNAKNSVYLQMNSLKPEDTAVYYCNKVTYRGIGLGYDYWGQGTQVTVSS”, the “polyreactivity (PSR sort gate)” value is recorded as “high polyreactivity”.
Take “RVQLGESGGGLVQAGGSLRLSCAASGRTFVRYAMGWYRQAPGKERELVAAISYRGASTFYADSVKGRFTISRDNAKNTVYLQMNSLNPEDTAVYSCATDPRIRYQGNPYDYWGQGTQVTVSS”: the “polyreactivity (PSR sort gate)” value is given as “high polyreactivity”.
Take “RVQLVESGGGLVQAGGRLRLSCAASRFTFIVNPMGWYRQAPGKERELVAAISWNGGSTYYADSVKGRFTISRDNAKNTVYLQMNSLKPEDTAVYYCAVLYRSEYDWGQGTQVTVSS”: the “polyreactivity (PSR sort gate)” value was “low polyreactivity”.
Regarding “RVQLVESGGGLVQAGGSLRLSCAASGGTFPVYAMGWYRQAPGKEWELVAAISYSGVTTYYADSVKGRFTISRDNAKNTVYLQMNSLKPEDTAVYYCNADWRRWYIFSYDYWGQGTQVTVSS”, the “polyreactivity (PSR sort gate)” value is listed as “low polyreactivity”.
“RVQLVESGGGLVQAGGSLRLSCAASGITFGRNAMGWYRQAPGKERELVAAISRGGSTNYADSVKGRFTISRDNAKNTVYLQMNSLKPEDTAVYYCNARSFGPTESRYDYWGQGTQVTVSS”: the “polyreactivity (PSR sort gate)” value is recorded as “high polyreactivity”.
For “RVQLVESGGGLVQAGGSLRLSCAASGSTISRYAMGWYRQAPGKERELVASISRSGTSTYYADSVKGRFTISRDNAKNTVYLQMNSLKPEDTAVYYCNKRWATSIQYRYNYWGQGTQVTVSS”, the “polyreactivity (PSR sort gate)” value is “high polyreactivity”.
As for “TYRGTTTYYADSVKGRFPIARDYAKNTVYLQMHSLKPEETAVYNWTRYYPSEYDYWGQGTHVTVSS”, the “polyreactivity (PSR sort gate)” value is listed as “high polyreactivity”.
